{"source": "paper PMC6662825", "about": "(2019)", "target": "T1, MBP-ZCCHC8^91–211-(GS)3-eYFP (human, UniProt Q6NZY4 91-211)", "T1 chain": "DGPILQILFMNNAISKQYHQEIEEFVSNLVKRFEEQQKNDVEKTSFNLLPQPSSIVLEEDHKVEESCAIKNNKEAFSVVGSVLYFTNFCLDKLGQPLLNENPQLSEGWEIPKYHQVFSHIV", "test": "MST"}
{"binder": "MTR4-KOW (domain or fragment) HKPKYCLPFLQPGRLVKVKNEGDDFGWGVVVNFSKKSNVKPNSGELDPLYVVEVLLRCSKESLKNSATEAAKPAKPDEKGEMQVVPVLVHLLSAISSVRLYIPKDLRPVDNRQSVLKSIQEVQKRFPDGIPLLDPIDDMGIQD", "values": [{"measurement": "Kd", "result": 0.327, "unit": "µM"}]}
